# Results published in patent US11692025 (UNIVERSITY COURT OF THE UNIVERSITY OF ABERDEEN, dated 2023).
# Positions count from the first letter of the chain named.
# B1: huE06 v1.1 (VNAR)
# VNAR: TRVDQSPSSLSASVGDRVTITCVLTDTSYPLYSTYWYQQKPGSSNKEQISISGRYSESVNKGTKSFTLTISSLQPEDFATYYCRAMGTNIWTGDGAGTKVEIK
# notes: Humanized VNAR, tested as monomeric 6xHis-tagged protein; also called humanized E06 v1.1; not shown: 6xHis tag
# B2: huE06 v1.10 (VNAR)
# VNAR: B1 VNAR with Q38R, Q39K, K40N
# notes: Humanized VNAR, tested as monomeric 6xHis-tagged protein; also called hE06v1.10; humanized E06 v1.10; not shown: 6xHis tag
# B3: SEQ ID NO 55 (VNAR)
# VNAR: ARVDQTPRTATKETGESLTINCVLTDTSYPLYSTYWYRKNPGSPNKERISISGRYVESVNKGTKSFSLRIKDLTVADSATYICRAMGANSWTGDGAGTALTVN
# notes: clone name not tied to this number; one of the 13 entries may be a consensus
# B4: SEQ ID NO 59 (VNAR)
# VNAR: B3 VNAR with T25A, P44S, R48Q, M86S, G87D, A88I, N89A, S90M, W91G, G93Y
# notes: as for B3
# B5: SEQ ID NO 62 (other)
# chain: IRVDQTPRTATKETGGSLTINCVLTDTSYPLYSTYWYRKNPGSSNKEQISISGRYVESVNKGTKSFSLRIKDLTVADSATYICRALSTYMEAGDGAGTVLTVN
# notes: as for B3
# B6: SEQ ID NO 63 (VNAR)
# VNAR: ASVNQTPRTATKETGESLTINCVLTDTSYPLYSTYWYRKNPGSSNKEQIPISGRYVESVNKGTKSFSLRIKDLTVADSATYICRAMDTSAGVVDGAGTVLTVN
# notes: as for B3
# B7: SEQ ID NO 61 (VNAR)
# VNAR: B3 VNAR with P44S, R48Q, A79G, A85S, M86I, G87T, A88T, N89H, T92S
# notes: as for B3
# B8: SEQ ID NO 53 (VNAR)
# VNAR: B3 VNAR with P44S, R48Q, M86I, G87T, A88T, N89D, G93S
# notes: as for B3
# B9: SEQ ID NO 56 (VNAR)
# VNAR: B6 VNAR with T27A, D87G, S89N, A90G, G91W, V92T, V93G
# notes: as for B3
# B10: SEQ ID NO 58 (VNAR)
# VNAR: TRVDQTPRTATKETGESLTINCVLTDTSYPLYSTYWYRKNPGSSNKEQISISGRYVESVNKGTKSFSLRIKDLTVADSATYICRAYTPGREDYGAGTVLTVN
# notes: as for B3
# B11: SEQ ID NO 54 (VNAR)
# VNAR: ARVDQTPRTATKETGESLTINCVLTDTSYPLYSTYWYRKNPGSSNKEQISISGRYVESVNKGTKSFSLRIKDLTVADSATYICRAYTIHIKLEQHGAGTVLTVN
# notes: as for B3
# B12: SEQ ID NO 57 (VNAR)
# VNAR: AKVDQTPRTTTKETGESLTINCVLTETSYGLSSTSWFQKNPGTTDWERMSIGGRYVESVNTGAKSFSLRIKDLTVADSATYYCKAHAGYGVWNRGLQWRGYDQYDGAGTVLTVN
# notes: as for B3
# B13: SEQ ID NO 60 (VNAR)
# VNAR: ASVNQTPRTATKETGESLTINCVLTGTSCSLYSTSWFRKNPGTTDWERISIGGRYVESVNKGAKSFSLRIKDLTVADSATYYCKAEKGRKGSAITSCRRSSYYDGAGTVLTVN
# notes: as for B3
# B14: SEQ ID NO 52 (VNAR)
# VNAR: IRVDQTPRTATKETGESLTINCVLTGTVCGMYSTSWSRKNPGRADWERISIGGRYVESVNKGAKSFSLRIRDLTVADSATYCCSAESPPICTSQGIAAVTKYYDGAGTVLTVN
# notes: as for B3
# B15: AG11 (VNAR)
# chain: B1 VNAR with Q38R, Q39K, K40N, I102T
# notes: Variant of huE06 v1.10 from error-prone PCR
# B16: BA11 (VNAR)
# VNAR: B1 VNAR with Q38R, Q39K, K40N, F78S, G87S
# notes: as for B15
# B17: BE4 (VNAR)
# VNAR: B1 VNAR with P30S, Q38R, Q39K, K40N
# notes: as for B15
# B18: AD4 (VNAR)
# VNAR: B1 VNAR with Q38R, Q39K, K40N, I51M, G62S
# notes: as for B15
# B19: BC3 (VNAR)
# VNAR: B1 VNAR with Q38R, Q39K, K40N, S44N
# notes: as for B15
# B20: AH7 (VNAR)
# VNAR: B1 VNAR with S6T, Q38R, Q39K, K40N, F66S
# notes: as for B15
# B21: BB10 (VNAR)
# VNAR: B1 VNAR with Q38R, Q39K, K40N, I90F
# notes: as for B15
# B22: AC9 (VNAR)
# VNAR: B1 VNAR with Q38R, Q39K, K40N, F66S
# notes: as for B15
# B23: BB11 (VNAR)
# VNAR: B1 VNAR with Q38R, Q39K, K40N, G87A
# notes: as for B15
# B24: BD12 (VNAR)
# VNAR: B1 VNAR with Q38R, Q39K, K40N, K64N
# notes: as for B15
# B25: SEQ ID NO 33 (VNAR)
# VNAR: B3 VNAR with P44S, R48Q, A88T, N89D, A99V
# notes: clone name not tied to this number
# B26: SEQ ID NO 43 (VNAR)
# VNAR: B3 VNAR with A1T, P44S, A88T, N89D
# notes: as for B25
# B27: SEQ ID NO 39 (VNAR)
# VNAR: B3 VNAR with A1T, P44S, A88T, N89D, A99V
# notes: as for B25
# B28: SEQ ID NO 48 (VNAR)
# VNAR: B6 VNAR with P50S
# notes: as for B25
# B29: SEQ ID NO 35 (VNAR)
# VNAR: B3 VNAR with A1T, P44S, R48Q, A88T
# notes: as for B25
# B30: SEQ ID NO 38 (VNAR)
# VNAR: B3 VNAR with A1T, S33R, P44S, R48Q, A88T, N89D, A99V
# notes: as for B25
# B31: SEQ ID NO 40 (VNAR)
# VNAR: B3 VNAR with A1T, P44S, A88T
# notes: as for B25
# B32: SEQ ID NO 49 (VNAR)
# VNAR: B3 VNAR with R2K, P44S, R48Q, A88T, N89D, A99V
# notes: as for B25
# B33: SEQ ID NO 50 (VNAR)
# VNAR: B3 VNAR with R2S, D4N, P44S, A88T, N89D, A99V
# notes: as for B25
# B34: SEQ ID NO 42 (VNAR)
# VNAR: B3 VNAR with A1T, S33R, P44S, R48Q, A88T, A99V
# notes: as for B25
# B35: SEQ ID NO 44 (VNAR)
# VNAR: B3 VNAR with A1T, P44S, A88T, S90I, A99V
# notes: as for B25
# Biological target: T1, mouse serum albumin (mouse, UniProt P07724 25-608)
# T1 construct: also called MSA
# Assay: BIAcore, pH 7.4, monomeric 6xHis-tagged VNAR
# T1 sequence (P07724 25-608 limits assumed): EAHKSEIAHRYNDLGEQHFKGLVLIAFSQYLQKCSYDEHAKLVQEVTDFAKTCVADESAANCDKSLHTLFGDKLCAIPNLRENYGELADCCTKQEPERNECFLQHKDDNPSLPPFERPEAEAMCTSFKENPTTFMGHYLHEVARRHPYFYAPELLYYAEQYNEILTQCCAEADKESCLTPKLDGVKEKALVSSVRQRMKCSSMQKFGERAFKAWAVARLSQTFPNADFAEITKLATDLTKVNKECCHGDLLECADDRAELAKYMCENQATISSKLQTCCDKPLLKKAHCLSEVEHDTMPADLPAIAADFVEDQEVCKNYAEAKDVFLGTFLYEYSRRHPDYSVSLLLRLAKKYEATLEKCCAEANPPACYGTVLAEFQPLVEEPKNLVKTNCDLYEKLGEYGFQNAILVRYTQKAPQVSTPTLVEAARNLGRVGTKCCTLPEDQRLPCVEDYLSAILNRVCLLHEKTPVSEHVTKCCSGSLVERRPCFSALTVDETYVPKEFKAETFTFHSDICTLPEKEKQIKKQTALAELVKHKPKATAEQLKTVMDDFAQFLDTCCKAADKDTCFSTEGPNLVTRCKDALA
Fold change from E06 [fold],Kd [nM],koff [s⁻¹],kon [M⁻¹ s⁻¹],Binder
59.4,49.2,0.0414,841000,B1
28.1,23.2,0.00959,412000,B2

# Biological target: T2, rat serum albumin (rat, UniProt P02770 25-608)
# T2 construct: also called RSA
# Assay: BIAcore, pH 7.4, monomeric 6xHis-tagged VNAR
# T2 sequence (P02770 25-608 limits assumed): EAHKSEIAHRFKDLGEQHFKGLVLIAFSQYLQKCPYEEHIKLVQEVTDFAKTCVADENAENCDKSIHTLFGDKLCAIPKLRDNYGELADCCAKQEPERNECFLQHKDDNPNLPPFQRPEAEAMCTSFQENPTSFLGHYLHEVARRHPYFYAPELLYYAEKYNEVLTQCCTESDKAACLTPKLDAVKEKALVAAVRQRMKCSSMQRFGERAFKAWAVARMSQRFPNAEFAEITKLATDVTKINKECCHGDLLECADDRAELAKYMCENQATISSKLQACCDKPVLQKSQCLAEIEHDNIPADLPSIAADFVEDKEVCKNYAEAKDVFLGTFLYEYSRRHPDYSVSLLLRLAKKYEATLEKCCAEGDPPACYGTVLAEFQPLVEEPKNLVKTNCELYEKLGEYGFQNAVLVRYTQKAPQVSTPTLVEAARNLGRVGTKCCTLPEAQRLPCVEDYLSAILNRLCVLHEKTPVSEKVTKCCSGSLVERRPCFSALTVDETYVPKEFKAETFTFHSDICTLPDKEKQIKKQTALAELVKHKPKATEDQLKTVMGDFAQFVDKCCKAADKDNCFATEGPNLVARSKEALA
Fold change from E06 [fold],Kd [nM],koff [s⁻¹],kon [M⁻¹ s⁻¹],Binder
52,75.3,0.0329,436000,B1
25.4,36.8,0.0165,449000,B2

# Biological target: T3, human serum albumin (human, UniProt P02768 25-609)
# T3 construct: also called HSA; HAS
# Assay: BIAcore, pH 7.4, monomeric 6xHis-tagged VNAR
Fold change from E06 [fold],Kd [nM],koff [s⁻¹],kon [M⁻¹ s⁻¹],Binder
84.9,16,0.014,872000,B1
33.9,6.4,0.00357,559000,B2

# Biological target: T3, human serum albumin
# Assay: screening of the unselected immunized library on HSA
row,binding result,Binder
1,binds,B3
2,binds,B4
3,binds,B5
4,binds,B6
5,binds,B7
6,binds,B8
7,binds,B9
8,binds,B10
9,binds,B11
10,binds,B12
11,binds,B13
12,binds,B14

# Biological target: T1, mouse serum albumin
# Assay: BIAcore, pH 6.0, monomeric 6xHis-tagged VNAR
Fold change from E06 [fold],Kd [nM],koff [s⁻¹],kon [M⁻¹ s⁻¹],Binder
28.3,9.28,0.0318,3.43e+06,B1
12.2,3.98,0.0125,3.14e+06,B2

# Biological target: T2, rat serum albumin
# Assay: BIAcore, pH 6.0, monomeric 6xHis-tagged VNAR
Fold change from E06 [fold],Kd [nM],koff [s⁻¹],kon [M⁻¹ s⁻¹],Binder
29,9.94,0.031,3.12e+06,B1
12.2,4.17,0.0152,3.65e+06,B2

# Biological target: T3, human serum albumin
# Assay: BIAcore, pH 6.0, monomeric 6xHis-tagged VNAR
Fold change from E06 [fold],Kd [nM],koff [s⁻¹],kon [M⁻¹ s⁻¹],Binder
35.6,5.07,0.0184,3.62e+06,B1
12.7,1.81,0.00637,3.52e+06,B2

# Biological target: T3, human serum albumin
# Assay: phage and periprep ELISA on HSA; purified 6xHis-tagged VNAR
# Method: The resultant mutational phage display libraries were rescued and selected twice using Nunc Maxisorp immunotubes. Following each pan, two 96-well plates of individual colonies were picked with a QPix2 XT (Genetix, San Jose, Calif., USA). Binding as monoclonal phage and periprep was evaluated by ELISA. All samples were processed with a Perkin Elmer MiniTrak robotic liquid handling system (Waltham, Mass., USA).
row,binding result,Binder
1,binds,B15
2,binds,B16
3,binds,B17
4,binds,B18
5,binds,B19
6,binds,B20
7,binds,B21
8,binds,B22
9,binds,B23
10,binds,B24

# Biological target: T3, human serum albumin
# Assay: phage display panning on HSA and screening
row,binding result,Binder
1,binds,B25
2,binds,B26
3,binds,B27
4,binds,B28
5,binds,B29
6,binds,B30
7,binds,B31
8,binds,B32
9,binds,B33
10,binds,B34
11,binds,B35
